The target in test [1] is T1, human CCR8 (human, UniProt P51685 1-355).
T1 construct: also called hCCR8; P51685_CCR8_HUMAN
Briefly: FACS screening, full length human IgG1.

For test [2], the target named is T2, cynomolgus CCR8 (cynomolgus, UniProt O97665 1-356 (rhesus entry)).
T2 construct: also called cynoCCR8; G7NYJ2_CCR8_MACFA
Briefly: FACS screening, full length human IgG1.

Test [3] deals with T1, human CCR8. The test is described as follows: FACS.
The target of test [4] is T2, cynomolgus CCR8. Briefly: FACS. In general terms: Flow cytometry measures light scatter and fluorescence of single cells or particles in a stream.
Test [5] has as its target T3, murine CCR8 (mouse, UniProt P56484 1-353).
T3 construct: also called mCCR8; P56484_CCR8_MOUSE
T3 sequence: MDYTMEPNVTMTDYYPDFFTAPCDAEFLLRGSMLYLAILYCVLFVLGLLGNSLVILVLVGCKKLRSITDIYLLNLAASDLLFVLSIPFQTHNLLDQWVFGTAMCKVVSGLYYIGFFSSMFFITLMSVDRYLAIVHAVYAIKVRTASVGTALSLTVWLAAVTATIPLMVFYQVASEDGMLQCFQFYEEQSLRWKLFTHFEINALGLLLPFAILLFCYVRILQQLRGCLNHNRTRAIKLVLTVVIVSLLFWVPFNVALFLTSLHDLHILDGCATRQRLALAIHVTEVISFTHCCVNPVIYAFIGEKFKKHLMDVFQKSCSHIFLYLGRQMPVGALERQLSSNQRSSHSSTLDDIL
Briefly: FACS, CHO-mCCR8.

Test [6] has as its target T3, murine CCR8. Briefly: cell-based or functional assay.
The target in test [7] is T1, human CCR8. Briefly: FACS, CHO-hCCR8.
Test [8] concerns the target T2, cynomolgus CCR8. The test is described as follows: FACS, CHO-cynoCCR8.
For the next test, the target named is T4, human FcRn (human, UniProt P55899 24-297).
T4 construct: also called neonatal Fc receptor
T4 sequence (P55899 24-297 limits assumed, form in doubt): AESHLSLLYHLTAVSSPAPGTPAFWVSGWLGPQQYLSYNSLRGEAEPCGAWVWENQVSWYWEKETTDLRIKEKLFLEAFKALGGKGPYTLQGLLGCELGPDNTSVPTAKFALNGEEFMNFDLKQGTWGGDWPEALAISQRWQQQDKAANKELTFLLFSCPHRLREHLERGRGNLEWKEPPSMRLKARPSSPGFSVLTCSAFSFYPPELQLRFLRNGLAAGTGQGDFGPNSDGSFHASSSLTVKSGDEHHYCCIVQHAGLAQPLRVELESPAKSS
The test is described as follows: SPR pH 6.0, FcRn immobilised.

The target of another test is cynomolgus FcRn (cynomolgus, UniProt Q8SPV9 24-297, limits assumed). The test is described as follows: SPR pH 6.0, FcRn immobilised.
cynomolgus FcRn, sequence (Q8SPV9 24-297 limits assumed, form in doubt): as the sequence (P55899 24-297 limits assumed, form in doubt) above, with N39D, E44Q, G99S, S189G, S190N, L217M, S269T counted along it
In a further test the target is T5, mouse FcRn (mouse, UniProt Q61559 22-297, limits assumed).
T5 sequence (looked up): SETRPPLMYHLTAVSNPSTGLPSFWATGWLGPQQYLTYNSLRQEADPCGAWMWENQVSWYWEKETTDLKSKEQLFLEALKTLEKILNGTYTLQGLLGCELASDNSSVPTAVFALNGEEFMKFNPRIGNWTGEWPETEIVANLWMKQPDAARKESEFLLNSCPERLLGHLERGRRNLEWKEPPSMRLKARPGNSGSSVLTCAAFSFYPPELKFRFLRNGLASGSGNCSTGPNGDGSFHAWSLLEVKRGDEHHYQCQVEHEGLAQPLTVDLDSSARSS
Briefly: SPR pH 6.0, FcRn immobilised.

Test [9] deals with T1, human CCR8. The test is described as follows: FACS, HuT78 (endogenous hCCR8).
In test [10] the target is T6, FcRn of the FcRn column (Roche, Order No. 8128057001).
T6 construct: also called immobilized FcRn
T6 sequence (P55899 24-297, chain 1 of 2): as the sequence (P55899 24-297 limits assumed, form in doubt) above
T6 sequence (P61769 21-119, chain 2 of 2, further chain): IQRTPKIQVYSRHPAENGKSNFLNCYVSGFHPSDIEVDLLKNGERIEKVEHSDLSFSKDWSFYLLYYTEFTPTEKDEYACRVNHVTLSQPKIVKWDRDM
Briefly: FcRn affinity chromatography, pH gradient. The protocol: A FcRn column (Roche, Order No. 8128057001; prepacked with approximately 1 mL resin; binding capacity: ≥100 μg IgG) was equilibrated with running buffer A: 20 mM MES/HCl pH 5.5 140 mM NaCl. 30 μL of each antibody (1 mg/mL in equilibration buffer) was applied to the column.

For test [11], the target named is T1, human CCR8. Briefly: FACS, CHO-hCCR8. The source holds these as a separate data set.
Test [12] deals with T2, cynomolgus CCR8. The test is described as follows: FACS, CHO-cynoCCR8. This is another data set of the same source.
Test [13] has as its target T7, Cyno_TRD_Ys peptide (# 2) (cynomolgus, Y(SO3) at printed positions 4, 16, 18 (Y3, Y15, Y17 of CCR8); C-terminal K(Biot)).
T7 construct: sulfated
T7 peptide: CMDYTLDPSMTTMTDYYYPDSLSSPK
Briefly: SPR, peptide on SA chip. The protocol:
(§1) SPR binding assays were performed to systematically evaluate antibody binding to a) non-sulfated vs sulfated antigen, b) TRD vs N term and c) human vs cynomolgus CCR8. SPR binding assays were performed on a Biacore T200 instrument (Cytiva) at 25° C. with assay buffer 1× HBS-EP+(order no. BR100826, Cytiva). Peptides were used as ligands and were captured using their C-terminal biotin label on to a streptavidin coated sensor chip (“Sensor Chip SA”, Order No. BR100398, Cytiva). To this end, a terminal lysine (K) was added at the C-term of each peptide for biotinylation. For the N term of CCR8, the naturally occurring cysteine between TRD and LID domain was replaced by a serine. […] The concentration of analyte in assay buffer was 0.05-10 nM and the measurement was performed in multicycle kinetics mode. The sensor surface was regenerated with glycine pH 2.0 after each cycle. Obtained sensorgrams were double referenced (subtraction of reference flow cell signal and buffer injection) and were fitted to a 1:1 Langmuir binding model to derive kinetic data using the Biacore T200 Evaluation software.

The target in test [14] is T8, HUMAN_TRD_Ys peptide (# 4) (human, Y(SO3) at printed positions 4, 16, 18 (Y3, Y15, Y17 of CCR8); C-terminal K(Biot)).
T8 construct: sulfated
T8 peptide: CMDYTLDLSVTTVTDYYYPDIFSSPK
Briefly: SPR, peptide on SA chip. Here is the method: as §1

Test [15] has as its target T9, Cyno_NTerm_Ys peptide (# 6) (cynomolgus, Y(SO3) at printed positions 4, 16, 18 (Y3, Y15, Y17 of CCR8); C-terminal K(Biot)).
T9 construct: sulfated; natural cysteine between TRD and LID replaced by serine
T9 peptide: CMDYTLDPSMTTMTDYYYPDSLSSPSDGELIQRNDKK
Briefly: SPR, peptide on SA chip. Here is the method:
as §1
(In general: Surface plasmon resonance follows binding to a sensor surface in real time, without labels.)

The target of test [16] is T10, HUMAN_NTerm_Ys peptide (# 8) (human, Y(SO3) at printed positions 4, 16, 18 (Y3, Y15, Y17 of CCR8); C-terminal K(Biot)).
T10 construct: sulfated; natural cysteine between TRD and LID replaced by serine
T10 peptide: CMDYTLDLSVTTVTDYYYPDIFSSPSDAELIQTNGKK
Briefly: SPR, peptide on SA chip. Here is the method:
as §1

This note sets out measurements from patent publication US20230250178A1 (published 2023).

Where a chain is given by its changes, count along the chain named. Where two headings read alike, the source gives them in different places.

T2 sequence (O97665 other isoform, or with tags, fused parts or gaps): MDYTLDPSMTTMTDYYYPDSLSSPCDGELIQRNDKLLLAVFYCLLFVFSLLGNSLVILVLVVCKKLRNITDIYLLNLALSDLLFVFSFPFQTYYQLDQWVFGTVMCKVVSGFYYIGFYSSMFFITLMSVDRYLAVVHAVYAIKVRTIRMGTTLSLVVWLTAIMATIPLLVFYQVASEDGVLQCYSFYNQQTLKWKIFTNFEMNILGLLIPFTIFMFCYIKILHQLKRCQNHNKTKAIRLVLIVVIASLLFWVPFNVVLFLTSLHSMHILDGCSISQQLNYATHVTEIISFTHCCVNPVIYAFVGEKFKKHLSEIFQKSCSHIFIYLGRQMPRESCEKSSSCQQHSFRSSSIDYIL

B1: TPP-17581 (antibody, human IgG1, lambda, V domains shown)
VH: EVQLLESGGGLVQPGGSLRLSCAASGFTFSNYRMTWVRQAPGKGLEWVSGINWNGGSTGYADSVKGRFTISRDNSKNTLYLQMNSLRAEDTAVYYCARGRFDTRGFYGFDYWGQGTLVTVSS
VL: QSVLTQPPSASGTPGQRVTISCTGSSSNIGAGYDVHWYQQLPGTAPKLLIYSHNQRPSGVPDRFSGSKSGTSASLAISGLRSEDEADYYCSAWDSSLSAWVFGGGTKLTVLG
notes: also called 497A-M177-L03-1-hIgG1Lambda
As to B1, the binding result with human CCR8 [1] and with cynomolgus CCR8 [2] was “binds” in each case.

B2: TPP-18207 (antibody, human IgG1, lambda, V domains shown)
VH: EVQLLESGGGLVQPGGSLRLSCAASGFTFSNAWMSWVRQAPGKGLEWVSGINWNGGSTGYADSVKGRFTISRDNSKNTLYLQMNSLRAEDTAVYYCARTYTGNYGPYFDYWGQGTLVTVSS
VL: B1 VL with S52K, H53N, S91A, S95D, S98R, A99G
notes: also called 001-B08_497A-M301-B18 + 497A-M316-D16-hIgG1Lambda
As for B2, the binding result with human CCR8 [1] and in the test with cynomolgus CCR8 [2] was “binds” throughout.

B3: TPP-14095 (antibody, human IgG1, lambda, V domains shown)
VH: EVQLLESGGGLVQPGGSLRLSCAASGFTFSSYGMHWVRQAPGKGLEWVSAISGSGGSTYYADSVKGRFTISRDNSKNTLYLQMNSLRAEDTAVYYCARGRQLGSWGQGTLVTVSS
VL: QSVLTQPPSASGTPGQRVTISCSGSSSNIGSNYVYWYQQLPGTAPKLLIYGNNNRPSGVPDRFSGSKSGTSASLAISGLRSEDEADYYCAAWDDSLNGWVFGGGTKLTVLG
notes: anti-murine CCR8, human IgG1 lambda; also called 497A-M005-E07-hIgG1Lambda
A word on the EC50: it is the midpoint of the concentration-response curve. Low readings indicate greater potency, high ones weaker potency. As for B3, the binding result with human CCR8 [3] and with cynomolgus CCR8 [4] was “no binding” throughout. For the same molecule, the EC50 in the test with murine CCR8 [5] came out at 0.7 nM. Moreover, the “IC50, Ca flux assay” value with murine CCR8 [6] turned out to be 1.65 nM.

B4: TPP-27495 (antibody, human IgG1, lambda)
heavy: EVQLLESGGGLVQPGGSLRLSCAASGFTFSSYGMHWVRQAPGKGLEWVSAINWNGGSTGYADSVKGRFTISRDNSKNTLYLQMNSLRAEDTAVYYCARGHHSGYDGRFFDYWGQGTLVTVSSASTKGPSVFPLAPSSKSTSGGTAALGCLVKDYFPEPVTVSWNSGALTSGVHTFPAVLQSSGLYSLSSVVTVPSSSLGTQTYICNVNHKPSNTKVDKKVEPKSCDKTHTCPPCPAPELLGGPSVFLFPPKPKDTLYITREPEVTCVVVDVSHEDPEVKFNWYVDGVEVHNAKTKPREEQYNSTYRVVSVLTVLHQDWLNGKEYKCKVSNKALPAPIEKTISKAKGQPREPQVYTLPPSRDELTKNQVSLTCLVKGFYPSDIAVEWESNGQPENNYKTTPPVLDSDGSFFLYSKLTVDKSRWQQGNVFSCSVMHEALHNHYTQKSLSLSPGK
light: not shown
modifications: 70% afucosylated
notes: also called TPP-27495 (YTE); copies: 2 + 2
A word on the Kd: it is the concentration at which binding is half-saturated. Low values mean tighter binding, high ones weaker binding. As for B4, the EC50 in the test with human CCR8 [7] came out at 1.32 nM; with cynomolgus CCR8 [8], 0.535 nM; with human CCR8 [9] it was 3.25 nM. In addition, the Kd in the test with human FcRn worked out at 29 nM; with cynomolgus FcRn, 30 nM; with mouse FcRn, 33 nM. For the same molecule, the “pH at Elution” value in test [10] is 7.88 pH.

B5: TPP-17576 (antibody, human IgG1, lambda, V domains shown)
VH: EVQLLESGGGLVQPGGSLRLSCAASGFTFSSYAMSWVRQAPGKGLEWVGRIRSKANSYATAYAASVKGRFTISRDNSKNTLYLQMNSLRAEDTAVYYCTRPLDSWGQGTLVTVSS
VL: QSVLTQPPSASGTPGQRVTISCSGSSSNIGNNAVNWYQQLPGTAPKLLIYRNNQRSSGVPDRFSGSKSGTSASLAISGLRSEDEADYYCQSYDNSLSASVFGGGTKLTVLG
notes: also called 497A-M136-021-1-hIgG1Lambda
As to B5, the binding result in the test with human CCR8 [1] and with cynomolgus CCR8 [2] was “binds” in each case.

B6: TPP-17579 (antibody, human IgG1, lambda, V domains shown)
VH: EVQLLESGGGLVQPGGSLRLSCAASGFTFVTYWMTWVRQAPGKGLEWVSGVSWNGSRTHYVDSVKRRFTISRDNSKNTLYLQMNSLRAEDTAVYYCARYSGYPDYYGMDVWGQGTLVTVSS
VL: B5 VL with S26W, N32D, A33N, N35Y, S56P, N94R, A98G
notes: also called 497A-M180-K04-1-hIgG1Lambda
For B6, the binding result with human CCR8 [1] and with cynomolgus CCR8 [2] was “binds” in each case.

B7: TPP-21181 (antibody, human IgG1, lambda, V domains shown)
VH: EVQLLESGGGLVQPGGSLRLSCAASGFTFSSYAMSWVRQAPGKGLEWVSGIRWNNGSKGYAGSVKGRFTISRDNSKNTLYLQMNSLRAEDTAVYYCARSGNYYYGYHGMDVWGQGTLVTVSS
VL: QSVLTQPPSASGTPGQRVTISCSGGNSNIGTYFVSWYQQLPGTAPKLLIYTNNQRPSGVPDRFSGSKSGTSASLAISGLRSEDEADYYCETWDSNTRVFGGGTKLTVLG
notes: also called 18205-gl46-hIgG1-wt-Lambda
As usually defined, the koff is the rate constant with which the complex falls apart. A high value points to fast dissociation. For orientation: kon means the second-order rate constant of association. Read a low kon as slower complex formation. Take B7: the EC50 with human CCR8 [11] came to 4.8 nM; in the test with cynomolgus CCR8 [12] it was 1.8 nM. Besides, the Activity in % in [13] worked out at 52.9%; in [14] it was 23.8%; in test [15] it was 78.5%; in [16], 17%. For the same molecule, the Kd in test [13] is about 1.39 nM; in test [14], about 2.87 nM; in [15] it was about 0.868 nM; in [16], about 2.88 nM. The dissociation rate constant (koff) in test [13] is about 5.87 s⁻¹; in [14], about 16 s⁻¹; in test [15], about 10.7 s⁻¹; in test [16], about 0.0222 s⁻¹. For the same molecule, the kon in [13] is about 4.23e+09 M⁻¹ s⁻¹; in test [14], about 5.56e+09 M⁻¹ s⁻¹; in test [16], about 7.69e+06 M⁻¹ s⁻¹.

B8: TPP-17580 (antibody, human IgG1, lambda, V domains shown)
VH: EVQLLESGGGLVQPGGSLRLSCAASGFTFSSYGMHWVRQAPGKGLEWVSGVSWNGSRTRYADSVKGRFTISRDNSKNTLYLQMNSLRAEDTAVYYCTRGSYNSGWYAVSWGQGTLVTVSS
VL: QSVLTQPPSASGTPGQRVTISCSGSSSNIGSYPVNWYQQLPGTAPKLLIYRNNQRPSGVPDRFSGSKSGTSASLAISGLRSEDEADYYCSSYSVTDNLIFGGGTKLTVLG
notes: also called 497A-M193-A08-1-hIgG1Lambda
With B8, the binding result with human CCR8 [1] and with cynomolgus CCR8 [2] was “binds” throughout.

B9: TPP-17575 (antibody, human IgG1, lambda, V domains shown)
VH: EVQLLESGGGLVQPGGSLRLSCAASGFTFRSYAMHWVRQAPGKGLEWVSLISWDGGSTYYADSVKGRFTISRDNSKNTLYLQMNSLRAEDTAVYYCARGGIGRRPGLEYWGQGTLVTVSS
VL: QSVLTQPPSASGTPGQRVTISCSGSSSNIGNNYVSWYQQLPGTAPKLLIYGNSNRPSGVPDRFSGSKSGTSASLAISGLRSEDEADYYCQTWGTGIRVFGGGTKLTVLG
notes: also called 497A-M181-C17-1-hIgG1Lambda
For B9, the binding result in the test with human CCR8 [1] and in the test with cynomolgus CCR8 [2] was “binds” throughout.
